Laboratory results as given in US7838231 (REGENTS OF THE UNIVERSITY OF MICHIGAN, dated 2010).

Tests used:
Experiment in all cases: direct yeast two-hybrid assay
[1] = target: T1, NPHP1, human full length, yeast two-hybrid prey (human, UniProt O15259 1-732)
T1 construct: also called nephrocystin 1
T1 sequence (looked up): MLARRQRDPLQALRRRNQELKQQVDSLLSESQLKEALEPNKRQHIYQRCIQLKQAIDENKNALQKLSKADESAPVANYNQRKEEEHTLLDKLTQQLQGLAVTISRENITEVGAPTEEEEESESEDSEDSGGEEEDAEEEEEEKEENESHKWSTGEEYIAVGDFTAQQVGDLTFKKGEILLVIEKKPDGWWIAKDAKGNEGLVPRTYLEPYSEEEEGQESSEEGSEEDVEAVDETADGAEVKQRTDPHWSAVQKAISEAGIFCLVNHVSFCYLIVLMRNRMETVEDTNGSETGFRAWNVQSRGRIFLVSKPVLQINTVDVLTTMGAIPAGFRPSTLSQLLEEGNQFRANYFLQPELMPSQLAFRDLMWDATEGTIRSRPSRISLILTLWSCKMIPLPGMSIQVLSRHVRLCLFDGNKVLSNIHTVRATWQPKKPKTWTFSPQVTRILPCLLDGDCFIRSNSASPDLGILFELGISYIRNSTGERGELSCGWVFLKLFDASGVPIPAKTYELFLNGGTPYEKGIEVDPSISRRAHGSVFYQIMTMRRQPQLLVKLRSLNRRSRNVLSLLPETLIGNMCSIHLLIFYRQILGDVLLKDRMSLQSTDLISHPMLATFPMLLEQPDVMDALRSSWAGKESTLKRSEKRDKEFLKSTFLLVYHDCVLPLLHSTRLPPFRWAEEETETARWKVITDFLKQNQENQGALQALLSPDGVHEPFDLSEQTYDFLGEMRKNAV

[2] = target: T2, BBS2, human full length, yeast two-hybrid prey (human, UniProt Q9BXC9 1-721)
T2 sequence (looked up): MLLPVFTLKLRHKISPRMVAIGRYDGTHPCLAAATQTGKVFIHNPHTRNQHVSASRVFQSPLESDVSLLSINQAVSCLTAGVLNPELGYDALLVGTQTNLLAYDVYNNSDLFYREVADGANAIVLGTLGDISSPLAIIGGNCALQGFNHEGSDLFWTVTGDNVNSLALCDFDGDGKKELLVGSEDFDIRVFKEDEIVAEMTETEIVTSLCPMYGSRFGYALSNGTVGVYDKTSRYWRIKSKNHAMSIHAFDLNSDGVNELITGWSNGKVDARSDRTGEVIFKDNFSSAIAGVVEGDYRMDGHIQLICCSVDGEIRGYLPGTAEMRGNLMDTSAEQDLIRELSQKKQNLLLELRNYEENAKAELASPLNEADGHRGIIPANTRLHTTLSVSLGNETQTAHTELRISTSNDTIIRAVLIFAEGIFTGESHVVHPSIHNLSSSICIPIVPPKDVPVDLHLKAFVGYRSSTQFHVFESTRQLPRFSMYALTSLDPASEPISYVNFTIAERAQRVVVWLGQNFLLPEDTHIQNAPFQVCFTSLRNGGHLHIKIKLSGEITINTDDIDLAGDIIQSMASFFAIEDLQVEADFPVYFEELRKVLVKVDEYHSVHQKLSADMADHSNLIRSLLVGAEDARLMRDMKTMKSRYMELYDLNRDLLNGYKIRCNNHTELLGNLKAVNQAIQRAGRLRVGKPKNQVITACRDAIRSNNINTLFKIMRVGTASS

[3] = target: T3, NPHP3, human full length, yeast two-hybrid prey (human, UniProt Q7Z494 1-1330)
T3 sequence (looked up): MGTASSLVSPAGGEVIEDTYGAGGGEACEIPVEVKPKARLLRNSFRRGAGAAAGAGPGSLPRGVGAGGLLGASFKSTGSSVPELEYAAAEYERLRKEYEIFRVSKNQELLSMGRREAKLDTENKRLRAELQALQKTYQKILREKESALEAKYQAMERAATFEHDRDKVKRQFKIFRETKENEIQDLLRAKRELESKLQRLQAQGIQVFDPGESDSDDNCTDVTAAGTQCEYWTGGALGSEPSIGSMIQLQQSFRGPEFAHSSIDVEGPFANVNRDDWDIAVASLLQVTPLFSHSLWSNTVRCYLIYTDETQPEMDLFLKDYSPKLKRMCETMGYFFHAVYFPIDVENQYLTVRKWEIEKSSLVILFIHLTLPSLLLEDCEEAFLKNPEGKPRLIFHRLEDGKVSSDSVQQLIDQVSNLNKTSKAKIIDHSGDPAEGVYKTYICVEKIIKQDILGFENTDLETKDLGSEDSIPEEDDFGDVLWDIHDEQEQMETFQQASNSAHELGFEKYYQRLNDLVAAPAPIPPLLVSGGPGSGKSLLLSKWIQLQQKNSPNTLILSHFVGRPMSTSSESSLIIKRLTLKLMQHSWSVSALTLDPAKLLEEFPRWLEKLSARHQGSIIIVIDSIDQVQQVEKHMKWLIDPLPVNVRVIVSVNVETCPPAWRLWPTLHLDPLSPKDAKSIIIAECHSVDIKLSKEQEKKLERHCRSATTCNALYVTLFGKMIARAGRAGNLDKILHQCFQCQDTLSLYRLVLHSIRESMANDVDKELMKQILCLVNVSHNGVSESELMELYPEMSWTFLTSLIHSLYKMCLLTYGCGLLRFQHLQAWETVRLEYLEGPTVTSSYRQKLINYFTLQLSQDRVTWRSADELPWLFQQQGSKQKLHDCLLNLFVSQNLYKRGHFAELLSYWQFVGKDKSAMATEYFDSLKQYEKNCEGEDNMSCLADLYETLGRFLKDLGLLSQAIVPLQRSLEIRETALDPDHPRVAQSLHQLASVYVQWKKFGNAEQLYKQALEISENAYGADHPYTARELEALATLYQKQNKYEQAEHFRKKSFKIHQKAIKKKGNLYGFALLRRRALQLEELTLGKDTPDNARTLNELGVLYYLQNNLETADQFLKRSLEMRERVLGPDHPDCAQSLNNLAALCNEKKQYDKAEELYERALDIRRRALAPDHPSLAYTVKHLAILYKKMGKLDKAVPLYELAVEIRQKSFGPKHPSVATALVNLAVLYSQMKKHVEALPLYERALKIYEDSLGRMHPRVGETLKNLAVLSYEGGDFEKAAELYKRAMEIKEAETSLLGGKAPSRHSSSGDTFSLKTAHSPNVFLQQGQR

binding result [1]: no binding
binding result [2]: no binding
binding result [3]: no binding
B1: full-length human nephrocystin-5 (NPHP5), yeast two-hybrid fusion (other, not shown: small tags and cut ends)
chain: MKPTGTDPRILSIAAEVAKSPEQNVPVILLKLKEIINITPLGSSELKKIKQDIYCYDLIQYCLLVLSQDYSRIQGGWTTISQLTQILSHCCVGLEPGEDAEEFYNELLPSAAENFLVLGRQLQTCFINAAKAEEKDELLHFFQIVTDSLFWLLGGHVELIQNVLQSDHFLHLLQADNVQIGSAVMMMLQNILQINSGDLLRIGRKALYSILDEVIFKLFSTPSPVIRSTATKLLLLMAESHQEILILLRQSTCYKGLRRLLSKQETGTEFSQELRQLVGLLSPMVYQEVEEQKLHQAACLIQAYWKGFQTRKRLKKLPSAVIALQRSFRSKRSKMLLEINRQKEEEDLKLQLQLQRQRAMRLSRELQLSMLEIVHPGQVEKHYREMEEKSALNIQKHWRGYRERKNFHQQRQSLIEYKAAVTLQRAALKFLAKCRKKKKLFAPWRGLQELTDARRVELKKRVDDYVRRHLGSPMSDVVSRELHAQAQERLQHYFMGRALEERAQQHREALIAQISTNVEQLMKAPSLKEAEGKEPELFLSRSRPVAAKAKQAHLTTLKHIQAPWWKKLGEESGDEIDVPKDELSIELENLFIGGTKPP
notes: Full-length NPHP5 cDNA (598 amino acid residues) fused to a GAL4 domain; also called KIAA0036
